Assay: yeast display, Sf9 membrane polyspecificity reagent, FACS + sequencing; frameworks hold sequencing errors
Method in brief: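 In a synthetic yeast display library (Saccharomyces cerevisiae BJ5465), nanobody expression was induced with galactose for 36–48 hours. FACS gates were set low and high (top ~1%) using anti-HA fluorescence for expression and streptavidin fluorescence for binding of the Sf9 membrane reagent. Each polyreactivity label is drawn from the gate of origin.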

| Sequence | polyreactivity (PSR sort gate) |
| --- | --- |
| QVQLVESGGGLVQAGGSLRLRCAASGSTFGRYAKVWYRQAPGKEREFVAAISWSGGSTYYADSVKGRFTISRDNAKNTVYLQMNSLKPEDTAVYYCARYSWRGLAEFDSWGQGTQVTVSS | low polyreactivity |
| QVQLVESGGGLVQAGGSLRLSCAASGSTLSRYVMGWYRRAAGKERELVAAISSSGGSTYYADSVKGRFTISRDNAKNTVYLQMNSLKPEDTADYYCNVDHWRRGRSDNYWGQGTQVTVSS | high polyreactivity |
| QVQLVESGGGVVQAGGSLRLSCAASGSIFYVYSMGWYRQAPGKERELVAAISRSGTNTYYADSVKGRFTISRDNAKNTVYLQMNSLKPEDTAVYYCNADAAYLVTQPYDDNYDYWGQGTQVTVSS | low polyreactivity |
| QVQLVESGGGLVQAGGSLRFSCAASGRIFQYNAMGWYRQAPGKERELVASITSGVRTYYADSVKGRFTISRDNAKNTVYLQMNSLKPEDTAVYYCNAYSGGQYDYCGQGTQVTVSS | high polyreactivity |
| QVQLVESGGGLVQAGGSLRLSCAASGSILPLYAMGWYRQAPGKERELVATISNAGSTTYADSVKGRFTISRDNAKNTVYLQMHSLKPEVTAVYYCNAESEWGWVYVGYDYWGQGTQVTVSS | low polyreactivity |
| QVQHVESGGGLVQAGGSLRLSCAASGTTFYSYAMGWYRQAPGKERELVAAISWRTSSTYYADSVKGRFTISRDNAKNTVYLQMNSLKPEDTAVYYCAAETWLGSWRQVGMDYWGQGTQVTVSS | high polyreactivity |
| QVQLVESGGGLVQAGGSLRLSCAASGLTIAAYAMGWYRQAPGKERELVAAITQRGGSTYYADSVKGRFTISRDNAKNTVYLQMNSLKPEDTAVYYCAADSTWWWWKLYSPYGYDYWGQGTQVTVSS | low polyreactivity |
| QVQLVESGGGLVQAGGSLRFSCAAYGSISRYYAMGWYRLAPGKERELVAAISSNGGSTYYADSVKGRFTISRDNAKNTVYLQMNSLKPEDTAVDDCAAESDYFRYDYWGQGTQVTVSS | high polyreactivity |
| LVQLVESGGGLVQAGGSLRLSCAASGGTIVYYTMGWYRHAPGKERELVATIDNSDGSTYYADSVKGRFTISRDNAKNTVDLQMNSLKPEDTPVYYCSKSLPHSTSRDYWGQGTQLTVSS | low polyreactivity |
| QVQLVESGGGLVQAGGSLRLSCAASGSIFYVYAMGWYRQAPGKERELVAAIRRSGTSTYYADSVKGRFTISRDNAKNTVYLQMNSLKPEDSAVYYCAARYEVRHTLYNYWGQGTQVTVSS | high polyreactivity |
| QVQLVESGGGLVQAGGSLRLSCAASGSIFDLYAMGWYRQAPGKERELVAAINWTGGSTYYADSVKGRFTISRDNAKNTVYLQMNSLKPEDTAVYYCAASYYYGTEHYDYWGQGTQVTVSS | low polyreactivity |
| QVQLVESGGGLVQAGGSLRLSCAGSGNIFVFYVMGWYRQAAGKERELVASISSTGNTYYADSVKGRFTISRDNAKNTVYLQMNSLKPEDTAVYYGAADSHQNVSGWLRWPRMDYWGQGTQVTVSS | low polyreactivity |
| QDQLVDSGGGLVQAGGSLRLSCAASGSNFCGKAMGWYRQAPGKEREFVAAITRSGGSTYYADSVKGRFTISRDNAKNTVYLQMNSLKPEDTAVYYCNRDYAFKHHRAGYGYWGQGTLVTVSS | low polyreactivity |
| QVQLVESGGGLVQAGGSLRLSCAASGRIFIGNAMGWSRQAPGKERELVAAISSSGGSTYYADSVKGRFTISRDNAKNTVYLQMNSLKPEDTAVYYCAAETKNAPRFYPYSNEGYYYWGHGTQVTVSS | low polyreactivity |
| QVQLVESGGGLVQAGGSLRLSCAASGRIFAYYAMGWYRQAPGTERELVAAISRSGVSTYYADSVKGRFTISRDNAKNTVYLQMNSLKPEDTAVYYCAAERYWTYYSGFVYGGDNYWGQGTQVTVSS | low polyreactivity |
| QVQLVESGGGLVQAGGSLRLSCAASGSIFKWYAMGWYRQAPGKERELVAAITRGGSTNYADSVKGRFTISRDNAKNTVYLQMNSLKAEDTAVYYCNAVYTYRSGFGYWGQGTQVTVSS | low polyreactivity |
| QVQLVESGGGLVQAGGSLRLSCAASGRTFPGNAMGWYRQAPGKERELVAAIRWRGGSTYYADSVKGRFTISRDNAKNTVYLQMNSLKPEDTAVYYCATRALGHFDWGQGTQVTVSS | low polyreactivity |
| QVQLVESGGGLVQAGGSLRLSCAASGYTFRGYAMGWYRQAPGKEREFVAAINWSDGSTYYADSVKGRFTISRDNAKNTVYLQMNSLKPEDTAVYYCNADQYYRVPDNYWGQGTQVTVSS | low polyreactivity |
| QVQLVESGGGLVQAGGSLRLSCAASGFNIIPYDMGWYRQAPGKEMDLVATISRGGSTNYADSVKGRFTISRDNAKNTVYLQMNSLKPEDTAVYYCAAEYKVVFSQPYGEYDYWGQGTQVTVSS | low polyreactivity |
| QVQMQESGGGLVQAGGTLRLSCAASGSFSADEDMGWYRQAQGKEREFVAGISVGGNTNYADSVKGRFTISRENAKNTVYLQINSLKPEDTAVYYCAVLQDVYDALDYWAQGTQVTVSS | high polyreactivity |
| QVQLVESGGGLVQAGGSLRLSCAASGSTFTQYAMGWYRQAPGKERELVAAINSRGDSTYYADSVKGRFTISRDNAKNTVYLQMNSLKPEDTAVYYCAATGYLSYYQQDLWLEYYYWGQGTQVTVSS | low polyreactivity |
| QVQLVESGGGLVQAGGSLRLSCAASGRIFRAYVMGWYRQAPGKEREYVAAITRSGGSTYYADSVKGRFTISRDNAKNTVYLQMNSLKPEDTAVYYCAAPVYLYGTVGRGDYWGQGTQVTVSS | high polyreactivity |

| Sequence | polyreactivity (PSR sort gate) |
| --- | --- |
| QVQIVESGGGLVQAGGSIRLSCAASGSIFYDNDMGWYRQAPAKERELVAAISWSASDTYYADSVKGRFTISRDNAKNTVYLQMNSLKPEDTAVYYCNAEVYEWYVVYSALDYWGQGTQVTVSS | low polyreactivity |
| QVQLVESGGGLVQAGGSLRLTCAASGFTFRYYAMGWYRQAPGKERELVASITGGGRTYYADSVKGRFTISRDNAKNTVYLQMNSLKPEDTAVYYCATLLAYRLGSGYDSWGQGTEVTVSS | high polyreactivity |
| QVQLVESGGGLVQAGGSLRLSCAASGSNFYPYTMGWYRQAPGKERELVAAISGGGRTYYADSVKGRFTISRDNAKNTVFLQMNSLNPEDTAVYYCAARYVYRWLVGKYEYWGQGTQVTLSS | high polyreactivity |
| QFQLVESGGGLVQAGGSLRLSCAASGSTIIKNAMGWYRQAPGKERELVAAINWSVTRTYYADSVKGRFTISRDNAKNTVYLQMNSLKPEDTAVYYCAKVIARFVRYDYWGQGTQVTVSS | high polyreactivity |
| QVQLVESGGGLVQAGGSLRLSCDGSGSIISAYTMEWYRQAPGKEREYVAAIRWSGDSTYYSDSVKGRFTISRDNAKNTVYLQMNSLKPEDTAVYYCAARDLWFPRYSSRYYYWGQGTQVTVSS | high polyreactivity |
| QVQLVESGGGLVQAGGSLRLSCAASGRIFSYNTMGWYRQAPGKERELVAAISCSGGSTSYADSVKGRFTISRDNAKNTVYLQMNSLKPEDTAVYYCATGSKRNPFYRGNYWGQGTQVTVSS | low polyreactivity |
| QVQLVESGGGLVQAGGSLRLSCAASGSTFRGYAMGWYRQAPGKERELVATITSGGSTNYADSVKGRFTISRDNGKNTVYLQMNSLKPEDTAVYYCNARWVPRYWYDYWGQGTQVTVSS | high polyreactivity |
| QVQLVESGGGLVQAGGSLRLSCAASGFTFLDYALGWYIQAPGKERELVASISSSGGSTRYADSVKGRFTISRDNAKNTVYLQMNSLKPEDTAVYYCNAQIAEVPNDYWGQGPQVTVSS | low polyreactivity |
| QVQLVESGGGLVQAGGSLRLSCPASGSTFVKNAMGWYRQAPGKERELVAAITARGGSTFYADSVKGRFTISRDNAKNTVYLQMISLTPEDTSVYYCADNGPRTYRLKDDYWGQGTQVTVSS | high polyreactivity |
| QAQLQESGGSLVQAGGGLRLSCAAIGYISVGSVMGWYRQAPSKERELVASIDQGANTNYADSVKGRFTISRDNAKNNVYLQMNSLKPEDTAVYYCATETTYILNYWGQGTQVTVSS | low polyreactivity |
| QVQLVESGGGLVQAGGSLRLSCAASGSIFPQYAMGWYRQAPGKERELVAAITRSGGGTHYADSVKGRFTISRDYAKNTVYFQMNSLKPEDTAVYYCAKAGYRSEFEYWGQGTQVTVSS | low polyreactivity |
| QVPLVESGGGLVQSGGSLRISCAASGSIFAPNAMGWYRQAPGKERELVAAITSGGSTDYADYVKGRFTISRDNAKNTVYLQMNRLKPEDTAVYFCAKGYVPYAIFDYWGQATQVTVSS | low polyreactivity |
| QVQLVESGGGLVQAGGSLRLSCAASGSTFYYNTMGWYRQAPGKERELVAAISSSGGTTYYADSVKGRFTISRDNAKNTVYLQMNSLKPEDTAVYYCNVATIWYSYARGYGYWGQGTQVTVSS | high polyreactivity |
| QVHLVESGAGLVQAGGSLRLSCAASGGIFWVYAMGWYRQAPGKERELGAAISNSDTSTSYADSVKGRFTISRDNAKNTVYLQMTSLKPEDTAVYYCNADSPSLSGDYWGQGTQVTVSS | low polyreactivity |
| QVQLVESGGGLVQAGGSLRLSCAASGSTFSSNAMGWYRQAPGKERELVAAINRTGNTYYADSVKGRFTISRDNAKNTVYLQMNSLKPEDTAVYYCNTDLNLYRGGGYWGQGTQVTVSS | low polyreactivity |
| QVQLVESGGGIVQAGGSLRLSCAASGSTLTIYAMGWYRQAPGKERELVAAISRSGGRTYYADSVKGRFTISRDNAKNTVYLQMNSLKPEDTAVYYCATQPVRDRPGGSRKKYYYWGLGTQVTVSS | high polyreactivity |
| QVQLVESGGGLVQAGGSLRLSCAASGSTFVPYAMGWYRQAPGKERELVAVITRGSTNYADSVKGRFTISRDNAKNTVYLQMNRLKPEDTAVYYCAVDVARGVLDYSFDSWGQGTQVTVSS | high polyreactivity |
| QVQLVESGGGLVQAGGSLRLSCAASGRICPGYVMGRYRQAPGKERELVAAITSTGRTYYADSVKGRFTISRDNEKKTVYLQMNSLKPEDTAVYYCAAVRSYYRGYDYWGQGTQVTVSS | high polyreactivity |
| QVQLVESGGGLVQAGGSLRLSCAASGSTFGYYAMGWYRQAPGKERELVAAISYRSGSTYYADSVKGRFTISRDNAKNTVYLQMNSLKPEDTAVYYCAAVIQGQQRYEYWGQGTQVTVSS | high polyreactivity |
| QDQLVESGGGLVQAGGSLRLSCAASGSTFGFYAMGWYRQAPGKERELVAAITTGGSTNYADSVKGRFTISRDNAKNTVYLQMNSLKPEDTAVYYCNADVYWNPYYDYDYWGQGTQVTVSS | high polyreactivity |
| QVQLVESGGGLVQAGGSLRLSCAASGLTFNKNAMGWYRQAPGKESEFVAAITRRGGSTYYADSVKGRFTISRDNAKNTVFLQMNSLKPEDTAVYYCAVYPASVNPYHYDYWGQGTQVTVSS | high polyreactivity |
